Where a chain is given by its changes, count along the chain named. Names and notes keep the numbering of the source.
B1: P8G (antibody, human IgG4 S228P, kappa, V domains shown)
VH: QVQLVQSGAEVKKPGASVKVSCKASGYTFTSYDINWVRQAPGQGLEWVGLINPRDDSTSYAQKFQGRVTMTRDTSTSTMYMELSSLRSEDTAVYFCARDLGSIREVLYYGMDVWGQGTTVTVSS
VL: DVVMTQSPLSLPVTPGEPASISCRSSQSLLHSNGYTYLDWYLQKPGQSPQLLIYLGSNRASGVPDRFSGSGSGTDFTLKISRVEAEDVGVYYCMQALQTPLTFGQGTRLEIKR
notes: also called anti-ANGPTL3 antibody P8G; P8 (variable regions)
B2: P8BG (antibody, human IgG4 S228P, kappa, V domains shown)
VH: B1 VH with D55E
VL: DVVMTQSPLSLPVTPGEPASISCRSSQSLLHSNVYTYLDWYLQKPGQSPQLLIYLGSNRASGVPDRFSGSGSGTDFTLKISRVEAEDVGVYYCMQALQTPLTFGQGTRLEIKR
notes: also called anti-ANGPTL3 antibody P8BG; P8B (variable regions)
B3: P3G (antibody, human IgG4 S228P, kappa, V domains shown)
VH: QVQLVQSGAEVKKPGASVKVSCKSSGYTFTDYYLHWLRQAPGQGPEWMGWISPNSGGTSYAQKFQGRVTMTRDTSISTAYMELSSLRSDDTAVYYCARDIATLGNFFTYGMDVWGQGTTVTVSS
VL: DIQLTQSPSSLSASVGDRVTITCRASQGIRNDLGWYQQKPGKAPKLLIYAASSLQSGVPSRFSGSGSGTDFTLTISSLQPEDFATYYCQQSYSSWTFGQGTKVEIKR
notes: also called anti-ANGPTL3 antibody P3G; P3 (variable regions)

What was measured:
[1] = target: T1, human-ANGPTL3 (R&D, 3829-AN) (human, UniProt Q9Y5C1 17-460); assay: SPR (Biacore T200); antibody captured on Protein A chip, antigen in flow; 1:1 Langmuir fit
T1 construct: Bought antigen used in the Biacore assay
T1 sequence (looked up): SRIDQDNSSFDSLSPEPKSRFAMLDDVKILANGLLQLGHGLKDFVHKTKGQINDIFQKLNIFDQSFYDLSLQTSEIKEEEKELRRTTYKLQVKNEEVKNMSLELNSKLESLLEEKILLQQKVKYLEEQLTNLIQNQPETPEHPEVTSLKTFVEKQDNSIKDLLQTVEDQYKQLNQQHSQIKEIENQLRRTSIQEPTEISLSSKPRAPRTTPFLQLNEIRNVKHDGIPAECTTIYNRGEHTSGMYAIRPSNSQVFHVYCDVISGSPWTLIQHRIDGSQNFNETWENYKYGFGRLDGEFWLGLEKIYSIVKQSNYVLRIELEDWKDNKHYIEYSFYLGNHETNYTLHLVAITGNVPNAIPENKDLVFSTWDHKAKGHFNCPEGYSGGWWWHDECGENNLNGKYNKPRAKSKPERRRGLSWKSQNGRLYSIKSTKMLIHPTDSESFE
From the text: (§1) Biacore was used to determine the affinity of the test anti-ANGPTL3 antibodies for human, monkey, rat and mouse ANGPTL3, and the method is as follows:
(§2) Reaction signals were detected in real time using a Biacore T200 instrument to obtain association and dissociation curves. After each cycle of dissociation was completed, the biochip was washed and regenerated using a glycine-hydrochloric acid regeneration solution (Cat. # BR-1003-54, GE, pH 1.5). The running buffer for the experiment was 1×HBS-EP buffer (Cat. # BR-1001-88, GE). The data obtained from the experiment were fitted with the (1:1) Langmuir model using GE Biacore T200 evaluation software (version 3.0) to obtain affinity values.

[2] = target: T2, cynomolgus monkey ANGPTL3(17-460)-His (cynomolgus monkey, UniProt Q9Y5C1 17-460 (human entry), biotin-labelled in the ELISA and HTRF assays (sites not given)); assay: as above
T2 construct: also called full-length cynomolgus monkey ANGPTL3; Cyno ANGPTL3
T2 chain: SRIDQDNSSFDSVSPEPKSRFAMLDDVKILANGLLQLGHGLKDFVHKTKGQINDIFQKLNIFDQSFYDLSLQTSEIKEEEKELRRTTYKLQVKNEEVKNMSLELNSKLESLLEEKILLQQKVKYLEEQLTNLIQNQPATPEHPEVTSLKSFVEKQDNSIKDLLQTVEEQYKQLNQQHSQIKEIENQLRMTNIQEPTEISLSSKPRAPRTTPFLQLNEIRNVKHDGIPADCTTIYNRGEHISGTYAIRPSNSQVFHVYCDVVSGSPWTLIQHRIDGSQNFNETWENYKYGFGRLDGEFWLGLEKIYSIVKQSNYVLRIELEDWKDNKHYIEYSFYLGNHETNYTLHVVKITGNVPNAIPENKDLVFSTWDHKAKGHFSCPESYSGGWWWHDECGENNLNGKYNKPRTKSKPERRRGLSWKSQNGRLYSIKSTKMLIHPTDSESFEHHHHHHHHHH
From the text: as §1, §2

[3] = target: T3, human ANGPTL3(17-170)-mFc (human); assay: ELISA; human ANGPTL3(17-170)-mFc captured by coated goat anti-mouse IgG
T3 construct: also called fusion protein of the extracellular region of human ANGPTL3 (17-170) and the mouse IgG2aFc fragment
T3 chain: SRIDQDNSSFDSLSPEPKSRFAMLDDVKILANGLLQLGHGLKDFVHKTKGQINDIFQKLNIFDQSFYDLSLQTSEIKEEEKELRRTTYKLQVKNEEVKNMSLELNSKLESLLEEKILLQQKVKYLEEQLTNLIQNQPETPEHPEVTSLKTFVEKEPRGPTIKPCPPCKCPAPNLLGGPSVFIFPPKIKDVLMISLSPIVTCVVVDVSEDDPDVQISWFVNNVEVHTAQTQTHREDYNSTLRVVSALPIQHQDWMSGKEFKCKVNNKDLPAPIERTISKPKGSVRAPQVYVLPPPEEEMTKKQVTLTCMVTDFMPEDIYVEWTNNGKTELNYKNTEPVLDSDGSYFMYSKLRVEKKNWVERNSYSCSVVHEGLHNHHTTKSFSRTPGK
Protocol: The binding activity of the anti-ANGPTL3 antibody to the ANGPTL3 antigen was tested by an ELISA assay. The ANGPTL3 protein (human ANGPTL3(17-170)-mFc) was immobilized on a 96-well microplate by binding to the goat anti-mouse IgG coated on the microplate, and the binding activity of the antibody to the ANGPTL3 was determined according to the intensity of the signal after the antibody was added.
Goat anti-mouse IgG (Sigma, M3534-1ML) was diluted to a concentration of 2 μg/mL with PBS buffer (Shanghai BasalMedia, B320, pH 7.4), added to a 96-well microplate (Corning, CLS3590-100EA) at 50 μL/well, and then incubated in an incubator at 37° C. for 3 h or incubated at 4° C. overnight (16-18 h). After the liquid was discarded, a PBS-diluted 5% skim milk (BD, 232100) blocking solution was added at 250 μL/well, and the mixture was incubated in an incubator at 37° C. for 3 h or incubated at 4° C. overnight (16-18 h) for blocking. After the blocking was finished, the blocking solution was discarded and the plate was washed 3 times with PBST buffer (pH 7.4 PBS containing 0.05% Tween-20), and then human ANGPTL3(17-170)-mFc (with sequence set forth in SEQ ID NO: 3) diluted to 0.5 μg/mL with a sample diluent (pH 7.4 PBS containing 1% BSA) was added at 50 μL/well. The mixture was incubated in an incubator at 37° C. for 2 h. After the incubation was finished, the reaction solution in the microplate was discarded. The plate was washed 3 times with PBST, and then a test antibody that was diluted with a sample diluent to different concentrations was added at 50 μL/well. The mixture was incubated in an incubator at 37° C. for 2 h. After the incubation was finished, the plate was washed 3 times with PBST, and a goat anti-human secondary antibody (Jackson Immuno Research, 109-035-003) that was diluted with the sample diluent was added at 50 μL/well. The mixture was incubated at 37° C. for 1 h.

Binder	Kd [1] [nM]	koff [1] [s⁻¹]	kon [1] [M⁻¹ s⁻¹]	Kd [2] [nM]	koff [2] [s⁻¹]	kon [2] [M⁻¹ s⁻¹]	EC50 [3] [nM]
B1	0.151	0.000333	2.2e+06	0.0593	0.000497	8.37e+06	0.361
B2	0.045	0.000276	6.14e+06	0.0769	0.000398	5.18e+06	0.172
B3	0.285	0.000731	2.56e+06	0.204	0.000847	4.15e+06	2.48
